In the Human Domainome abundance scans (Beltran et al. 2025):
± gives the uncertainty stated by the source.

B1: POU domain, class 3, transcription factor 4, residues 280 to 335; numbered along this chain, P49335 (parent)
chain: KKRTSIEVSVKGVLETHFLKCPKPAAQEISSLADSLQLEKEVVRVWFCNRRQKEKR
B2: Chromodomain-helicase-DNA-binding protein 3, residues 374 to 426; numbered along this chain, Q12873 (parent)
chain: YETDHQDYCEVCQQGGEIILCDTCPRAYHLVCLDPELDRAPEGKWSCPHCEKE

Variants of: B1
Test: abundance fitness (aPCA) (normalised: wild type 0, dead -1); higher = more abundant; growth selection in yeast, the domain comes from the species named
Conditions: Homo sapiens

Variant	abundance fitness
KKRTSIEVSVKGVLETHFLKCPKPHAQEISSLADSLQLEKEVVRVWFCNRRQKEKR [A25H]	-0.096 ± 0.27
KKRTSIEVSVKGVLETHFLKCPKPMAQEISSLADSLQLEKEVVRVWFCNRRQKEKR [A25M]	-0.073 ± 0.19
KKRTSIQVSVKGVLETHFLKCPKPAAQEISSLADSLQLEKEVVRVWFCNRRQKEKR [E7Q]	0.013 ± 0.14
KKRTSIEVSVKGVLETHFLKGPKPAAQEISSLADSLQLEKEVVRVWFCNRRQKEKR [C21G]	-0.724 ± 0.15
KKRTSIEVSVKGVLETHFLKCPKPAAQEISSLADSLQLEKEVVRVWFCNRRQYEKR [K53Y]	-0.616 ± 0.31
KKRTSIEVSVKGVLETHFLKCPKPAAQEISSLADSLQLEKEVVRVHFCNRRQKEKR [W46H]	-0.647 ± 0.35
KKRTSIEVSVKGVLETHFLKCPKPAAQEISSLADSLQLEKEVVRVVFCNRRQKEKR [W46V]	-0.82 ± 0.17
KKRTSIEVSVKGVLETHDLKCPKPAAQEISSLADSLQLEKEVVRVWFCNRRQKEKR [F18D]	-0.814 ± 0.27
KKRTSIEVSVKGVLETHQLKCPKPAAQEISSLADSLQLEKEVVRVWFCNRRQKEKR [F18Q]	-1.16 ± 0.39
KKRDSIEVSVKGVLETHFLKCPKPAAQEISSLADSLQLEKEVVRVWFCNRRQKEKR [T4D]	0.34 ± 0.19
KKRYSIEVSVKGVLETHFLKCPKPAAQEISSLADSLQLEKEVVRVWFCNRRQKEKR [T4Y]	-0.248 ± 0.22
KKRTSIEVSVKGVLETHFLKCPKPAIQEISSLADSLQLEKEVVRVWFCNRRQKEKR [A26I]	-0.168 ± 0.21
KKRTSIEVSVKGVLETHFLKCPKPATQEISSLADSLQLEKEVVRVWFCNRRQKEKR [A26T]	-0.017 ± 0.17
KKRTSIEVSVKGVLETHFLKCPKPAAQEISSLADSLQLEKEVVRVWFCNRRQKSKR [E54S]	-0.679 ± 0.18
KKRTSIEVSVKGVLETHFLKCPKPAAQEISSLADSLQPEKEVVRVWFCNRRQKEKR [L38P]	-0.932 ± 0.29
KKRTSIEVSVKGWLETHFLKCPKPAAQEISSLADSLQLEKEVVRVWFCNRRQKEKR [V13W]	-0.745 ± 0.27
KKRTSIEVSVKGVLETIFLKCPKPAAQEISSLADSLQLEKEVVRVWFCNRRQKEKR [H17I]	-0.542 ± 0.31
KKRTSIEVSVKGVLETNFLKCPKPAAQEISSLADSLQLEKEVVRVWFCNRRQKEKR [H17N]	-0.458 ± 0.37
KKRTSIEVSVKGVLETHFLKCPKPAAQEISELADSLQLEKEVVRVWFCNRRQKEKR [S31E]	-0.058 ± 0.22
KKRTSIEVSVKGVLETHFLKCPKPAAQEISSLADSLQLEKEVVRVWFCNRRQKEDR [K55D]	-0.223 ± 0.28
KKRTSIEVSVKGVLETHFLKCPKPAAQEISSLADSLQLEKEVVRVWFCNREQKEKR [R51E]	-0.258 ± 0.16
KKRTSIEVSVKGVLETHFLKCPKPAAQEIISLADSLQLEKEVVRVWFCNRRQKEKR [S30I]	-0.148 ± 0.3

Variant	abundance fitness
KKRTSIEVSVKGVLETHFLKCPKPAAQEIVSLADSLQLEKEVVRVWFCNRRQKEKR [S30V]	-0.058 ± 0.11
KKRTSIEASVKGVLETHFLKCPKPAAQEISSLADSLQLEKEVVRVWFCNRRQKEKR [V8A]	0.354 ± 0.14
KKRTSIEDSVKGVLETHFLKCPKPAAQEISSLADSLQLEKEVVRVWFCNRRQKEKR [V8D]	0.006 ± 0.31
KKRTSIEISVKGVLETHFLKCPKPAAQEISSLADSLQLEKEVVRVWFCNRRQKEKR [V8I]	0.04 ± 0.14
KKRTSIEVSVKGVLETHFLKCPKPAAQEISSLADSLQLEKEVVRVWFCNRRRKEKR [Q52R]	-0.317 ± 0.13
KKRTSIEVSVKGVLETHFLKCPKPAAQEISSLADSLQLEKEMVRVWFCNRRQKEKR [V42M]	-0.401 ± 0.2
KKRTSFEVSVKGVLETHFLKCPKPAAQEISSLADSLQLEKEVVRVWFCNRRQKEKR [I6F]	-0.397 ± 0.099
KKRTSDEVSVKGVLETHFLKCPKPAAQEISSLADSLQLEKEVVRVWFCNRRQKEKR [I6D]	-0.249 ± 0.12
KKRTSIEVSVKGVLETHFLKCPKPAAQESSSLADSLQLEKEVVRVWFCNRRQKEKR [I29S]	-0.762 ± 0.29
KKRTSIEVSVKGVLETHFLKCPKPAAQEISSLADLLQLEKEVVRVWFCNRRQKEKR [S35L]	-0.122 ± 0.11
KKRTSIEVSVKGVLETHFLSCPKPAAQEISSLADSLQLEKEVVRVWFCNRRQKEKR [K20S]	-0.479 ± 0.15
KKRTSIEVSVKGVLETHFLMCPKPAAQEISSLADSLQLEKEVVRVWFCNRRQKEKR [K20M]	-0.812 ± 0.26
KKRTSIEVSVKGVLETHFLCCPKPAAQEISSLADSLQLEKEVVRVWFCNRRQKEKR [K20C]	-0.735 ± 0.18
KERTSIEVSVKGVLETHFLKCPKPAAQEISSLADSLQLEKEVVRVWFCNRRQKEKR [K2E]	-0.526 ± 0.28
KKRTSIEVSYKGVLETHFLKCPKPAAQEISSLADSLQLEKEVVRVWFCNRRQKEKR [V10Y]	-0.503 ± 0.36
KKRTSIEVSVKGVLETHFLKCPKPAAQEISSLADSLQLEKEVVRVWFCNRRQKEKE [R56E]	0.387 ± 0.2
KKRTSIEVSVKGVFETHFLKCPKPAAQEISSLADSLQLEKEVVRVWFCNRRQKEKR [L14F]	-0.887 ± 0.25
KKRTSIEVSVKGVLETHFLKCPKPAAQEISSLEDSLQLEKEVVRVWFCNRRQKEKR [A33E]	-0.634 ± 0.26
KKRTSIEVSVKGVLETHFLKCPKPAAQEISSLWDSLQLEKEVVRVWFCNRRQKEKR [A33W]	-0.835 ± 0.27
KKRTSIEVSVKGVLETHFLKCPKPAAQEISSLPDSLQLEKEVVRVWFCNRRQKEKR [A33P]	-0.907 ± 0.3
KKRTSIEVSVKGVLETHFLKCPKPAAQEISSLADSLQLEKEVVRVWFMNRRQKEKR [C48M]	0.022 ± 0.19

Variants of: B2
Test: as above
Conditions: Homo sapiens

Variant	abundance fitness
E2R	-0.086 ± 0.12
E2C	0.138 ± 0.15
E2W	-0.006 ± 0.27
E2K	0.294 ± 0.15
E2M	0.549 ± 0.18
E2P	-0.095 ± 0.11
E2G	-0.011 ± 0.13
E2Y	0.327 ± 0.12
E2T	0.34 ± 0.097
E2N	0.526 ± 0.11
E2H	0.126 ± 0.099
E2Q	0.231 ± 0.17
E2A	-0.263 ± 0.1
